Assay results published in the supplement of paper PMC10126150.
± gives the standard deviation of the averaged measurements.

system: ATP; assay: switch fluorescence ratio, 500 uM ATP over buffer (Cy3 cluster intensity, sum of 5 cycles each) (fold (ratio)); higher = stronger signal-on switching upon ATP binding; sequences stand for … in TCGTCGGCAGCGTCAGATGTGTATAAGAGACAGTTTTTTTTTTTTTTTTTTTTTTTTT…TC; conditions: aptamer strand: ATP DNA aptamer (quencher-CACCTGGGGGAGTATTGCGGAGGAAGG + anchor), 100 nM annealed; ATP concentration: 500 uM
Method in brief: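 For every switch-domain sequence, the fluorescence ratio is the mean of per-cluster values, each being summed target-cycle Cy3 intensity over summed buffer-cycle Cy3 intensity. Clusters outside 100-1000 RFU were excluded. On a modified Illumina MiSeq flow-cell, the Cy3-labelled switching-strand clusters were annealed to 100 nM quencher-labelled ATP aptamer, imaged in selection buffer and then after 15 min with 500 uM ATP at 22 °C. Five such cycles were run, with NaOH stripping and re-annealing between them.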
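Further: ATP exposure 15 min at 22 °C before imaging.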

| Sequence | switch fluorescence ratio |
| --- | --- |
| CATTAGTAGC | 1.02 ± 0.05 |
| CATTATATCG | 1 ± 0.023 |
| CATTATGCTT | 0.9864 ± 0.0014 |
| CATTATGGAG | 1 ± 0.047 |
| CATTCAGTCG | 1 ± 0.026 |
| CATTCAGTTC | 1 ± 0.058 |
| CATTCATGCT | 0.971 ± 0.033 |
| CATTCGGATG | 1.01 ± 0.055 |
| CATTGAGTAG | 1.01 ± 0.024 |
| CATTGAGTCG | 0.98 ± 0.052 |
| CATTGCAA | 1 ± 0.085 |
| CATTGCAAAC | 5.13 ± 0.53 |
| CATTGCTCTG | 1.02 ± 0.026 |
| CATTGGGGGG | 0.99 ± 0.038 |
| CATTGGTAGG | 0.987 ± 0.019 |
| CATTGGTTTG | 1.01 ± 0.048 |
| CATTGTCTTC | 1.05 ± 0.055 |
| CATTGTGGGA | 0.997 ± 0.023 |
| CATTGTGGGC | 0.9621 ± 0.0034 |
| CATTTAAAGC | 1 ± 0.018 |
| CATTTAGCAC | 1.131 ± 0.0021 |
| CATTTAGCTG | 0.9875 ± 0.0055 |
| CATTTAGGGC | 1.02 ± 0.054 |
| CATTTAGGGG | 0.995 ± 0.036 |
| CATTTAGGTA | 1.001 ± 0.0078 |

| Sequence | switch fluorescence ratio |
| --- | --- |
| CATTTATAGT | 0.9799 ± 0.0083 |
| CATTTATGTG | 0.978 ± 0.021 |
| CATTTCAACC | 1.019 ± 0.0021 |
| CATTTGAGGT | 1 ± 0.027 |
| CATTTGATCG | 1.03 ± 0.013 |
| CATTTGCGCA | 1.022 ± 0.0084 |
| CATTTGGATT | 1.04 ± 0.012 |
| CATTTGGGGT | 0.989 ± 0.017 |
| CATTTTATAA | 0.999 ± 0.014 |
| CATTTTCCGC | 1.81 ± 0.57 |
| CATTTTCTC | 1.038 ± 0.0086 |
| CATTTTGTCT | 1.018 ± 0.0047 |
| CCAAAAAAGG | 0.9625 ± 0.005 |
| CCAAAAGGAT | 1.01 ± 0.012 |
| CCAAAAGTAT | 1.03 ± 0.081 |
| CCAAAATTCC | 1.12 ± 0.034 |
| CCAAACAGGA | 1.006 ± 0.0063 |
| CCAAACGATT | 1.02 ± 0.027 |
| CCAAAGGGTT | 1.036 ± 0.0034 |
| CCAAATAGGA | 1.01 ± 0.013 |
| CCAAATGAGT | 0.989 ± 0.012 |
| CCAACTGGGA | 1.05 ± 0.012 |
| CCAAGAGTCG | 1.08 ± 0.046 |
| CCAAGCGCTG | 1.06 ± 0.03 |
| CCAAGGAAAA | 1.04 ± 0.17 |

| Sequence | switch fluorescence ratio |
| --- | --- |
| CCAAGGCAGG | 1.35 ± 0.069 |
| CCAAGGCGGG | 1.04 ± 0.017 |
| CCAAGGGCTG | 1.15 ± 0.19 |
| CCAAGGTCCT | 1.01 ± 0.014 |
| CCAAGTGCTG | 0.994 ± 0.018 |
| CCAAGTGGGA | 0.985 ± 0.01 |
| CCAAGTGGGC | 1.03 ± 0.053 |
| CCAAGTGTAT | 1.02 ± 0.055 |
| CCAAGTTGTG | 1.03 ± 0.074 |
| CCAAGTTTTT | 0.98 ± 0.031 |
| CCAATCGGGG | 1.03 ± 0.087 |
| CCAATGAGTC | 0.971 ± 0.013 |
| CCAATGGTGG | 1.01 ± 0.043 |
| CCAATGTGCG | 0.9925 ± 0.0092 |
| CCAATTCAAG | 0.9977 ± 0.0073 |
| CCACAAAATT | 1.1 ± 0.18 |
| CCACAGAAAA | 1.033 ± 0.006 |
| CCACAGGGCA | 1.34 ± 0.059 |
| CCACCCACAT | 1.48 ± 0.065 |
| CCACTTGAAA | 1 ± 0.018 |
| CCACTTGGTC | 1.06 ± 0.064 |
| CCAGACAGGG | 0.956 ± 0.045 |
| CCAGACATGA | 1.02 ± 0.012 |
| CCAGAGGAAC | 0.948 ± 0.019 |
| CCAGAGGTGT | 1.6 ± 0.064 |

| Sequence | switch fluorescence ratio |
| --- | --- |
| CCAGCATAGA | 1.14 ± 0.044 |
| CCAGCTGGAG | 0.997 ± 0.025 |
| CCAGCTGGAT | 1.015 ± 0.0088 |
| CCAGGCAAGC | 2.46 ± 1.3 |
| CCAGGCATGT | 1.05 ± 0.012 |
| CCAGGCGCGG | 1.05 ± 0.055 |
| CCAGGCTTAA | 1.06 ± 0.036 |
| CCAGGGAGCC | 1.1 ± 0.17 |
| CCAGGGCGGC | 0.854 ± 0.019 |
| CCAGGGCTAG | 1.02 ± 0.062 |
| CCAGGGGGGC | 1.16 ± 0.061 |
| CCAGGGGTGG | 1.02 ± 0.064 |
| CCAGGGTGCT | 2 ± 0.39 |
| CCAGGTAACT | 1.05 ± 0.018 |
| CCAGGTAAGT | 1.11 ± 0.11 |
| CCAGGTAGAG | 1.32 ± 0.13 |
| CCAGGTGTTA | 2.31 ± 1.8 |
| CCAGGTTAAT | 1.036 ± 0.0033 |
| CCAGGTTGTT | 1.551 ± 0.0043 |
| CCAGGTTTGC | 1.08 ± 0.067 |
| CCAGGTTTTT | 1.04 ± 0.017 |
| CCAGTAATTG | 1.04 ± 0.022 |
| CCAGTAGACT | 1.06 ± 0.035 |
| CCAGTAGGTC | 1.03 ± 0.022 |
| CCAGTCATGA | 1.014 ± 0.0027 |
